In patent US20140357845A1:

What was measured:
Details in all cases: remark: other sources report otherwise
[1] = target: H1-mini2-cluster1 + 5 + 6-trim (influenza A virus H1N1), A8C8J4; experiment: FACS
[2] = target: miniHA cluster1 (A/Brisbane/59/2007) (influenza A virus H1N1), A8C8J4; experiment: FACS
[3] = target: mini2-cluster1 + 5 (A/Brisbane/59/2007) (influenza A virus H1N1), A8C8J4; experiment: FACS
[4] = target: mini2 cluster11 + 5 (A/Brisbane/59/2007) (influenza A virus H1N1), A8C8J4; experiment: FACS
[5] = target: mini2-cluster11 + 5 + 6 (A/Brisbane/59/2007) (influenza A virus H1N1), A8C8J4; experiment: FACS
[6] = target: T1, s-H1-mini2-cluster1 + 5 + 6-GCN4 (A/Brisbane/59/2007) (influenza A virus H1N1); experiment: BLI steady state titration, 1:1 model
[7] = target: T1, s-H1-mini2-cluster1 + 5 + 6-GCN4 …

B1: CR6261 (antibody, V domains shown)
VH: EVQLVESGAEVKKPGSSVKVSCKASGGPFRSYAISWVRQAPGQGPEWMGGIIPIFGTTKYAPKFQGRVTITADDFAGTVYMELSSLRSEDTAMYYCAKHMGYQVRETMDVWGKGTTVTVSS
VL: QSVLTQPPSVSAAPGQKVTISCSGSSSNIGNDYVSWYQQLPGTAPKLLIYDNNKRPSGIPDRFSGSKSGTSATLGITGLQTGDEANYYCATWDRRPTAYVVFGGGTKLTVLG
**Q.** What does the source list for B1?
**A.** % positive cells [1]: 80%; fold reduction of MFI against SEQ ID NO: 46 [1]: 3 to 4 fold; % positive cells [2]: 60%; MFI relative to full-length HA [2]: 10%; % positive cells [3]: 80%; % positive cells [4]: 80%; MFI relative to full-length HA [4]: 50%; % positive cells [5]: 80%; Kd [6]: 190 nM; BLI maximum response [7]: 0.25 nm
